Assay results taken from PMC5877976.

How the values were obtained:
Test in all cases: SPR
[1] = target: chronic gp120 with its wild-type chronic SP (HIV-1 (subtype B))
[2] = target: chronic gp120 with the early-replicating SP (HIV-1 (subtype B))
[3] = target: early-replicating gp120 with its wild-type SP (HIV-1 (subtype B))
[4] = target: early-replicating gp120 with the chronic SP (HIV-1 (subtype B))

## tetrameric recombinant soluble DC-SIGN (from UniProt Q9NNX6 1-404) (receptor)
[1]
  peak response units (RU): 184 RU
[2]
  peak response units (RU): 308 RU
[3]
  peak response units (RU): 208 RU
[4]
  peak response units (RU): 131 RU
